Target: HKU1 S 2P prefusion-stabilized ectodomain trimer (HCoV-HKU1, isolate  (N5 used), UniProt Q0ZME7, stabilised)
Assay: SPR

B1: S2P6 Fab fragment (Fab, V domains shown)
VH: EVQLVQSGAEVKKPGASVKVSCKASGYTFTSQYMHWVRQAPGQGLEWIGIINPSGVHTSYAQKFQGRVTLTRDTSTSTLYMELSSLRSEDTAVYYCARGSPKGAFDYWGQGTLVTVSS
VL: not shown
B1 showed a Kd of about 120 nM.

Reference: doi:10.1101/2021.05.09.442808 (bioRxiv, 2021)
